Measurements published in paper PMC5953937.

Molecular target: lipin 1 (UniProt Q14693)
Assay: co-immunoprecipitation (presumed)
Settings: reference: wild-type Tip60; sites S86

Substance: Tip60 (from UniProt Q92993) S86A-Tip60
- binding against the reference: weaker
